Patent publication US20120316071A1 (published 2012)
Numbering of substitutions follows the chain as printed. Numbers in names are those of the source.

B1: Fab VH1-46_IGHD6-6*01_IGHJ1*01 S102A/S103P/S104F/H111F (APFF) & L6_IGKJ1*01 S28I (Fab, V domains shown)
VH: QVQLVQSGAEVKKPGASVKVSCKASGYTFTSYYMHWVRQAPGQGLEWMGIINPSGGSTSYAQKFQGRVTMTRDTSTSTVYMELSSLRSEDTAVYYCAREEYAPFSAEYFQFWGQGTLVTVSS
VL: EIVLTQSPATLSLSPGERATLSCRASQIVSSYLAWYQQKPGQAPRLLIYDASNRATGIPARFSGSGSGTDFTLTISSLEPEDFAVYYCQQRSNWPPWTFGQGTKVEIKR
notes: Fab expressed in E. coli: VH joined to CH1 (Plasmid A, His6 and Flag tags), VL joined to kappa CL (Plasmid C); also called APFF S28I
B2: Fab VH1-46_IGHD6-6*01_IGHJ1*01 S102A/S103P/S104F/H111F (APFF) & L6_IGKJ1*01 S28R (Fab, V domains shown)
VH: B1 VH
VL: B1 VL with I28R
notes: Fab expressed in E. coli: VH joined to CH1 (Plasmid A, His6 and Flag tags), VL joined to kappa CL (Plasmid C); also called APFF S28R
B3: Fab VH1-46_IGHD6-6*01_IGHJ1*01 S102A/S103P/S104F/H111F (APFF) & L6_IGKJ1*01 S28L (Fab, V domains shown)
VH: B1 VH
VL: B1 VL with I28L
notes: Fab expressed in E. coli: VH joined to CH1 (Plasmid A, His6 and Flag tags), VL joined to kappa CL (Plasmid C); also called APFF S28L
B4: Fab VH1-46_IGHD6-6*01_IGHJ1*01 S102A/S103P/S104F/H111F (APFF) & L6_IGKJ1*01 S28W (Fab, V domains shown)
VH: B1 VH
VL: B1 VL with I28W
notes: Fab expressed in E. coli: VH joined to CH1 (Plasmid A, His6 and Flag tags), VL joined to kappa CL (Plasmid C); also called APFF S28W
B5: Fab VH1-46_IGHD6-6*01_IGHJ1*01 S102A/S103P/S104F/H111F (APFF) & L6_IGKJ1*01 S30G (Fab, V domains shown)
VH: B1 VH
VL: B1 VL with I28S, S30G
notes: Fab expressed in E. coli: VH joined to CH1 (Plasmid A, His6 and Flag tags), VL joined to kappa CL (Plasmid C); also called APFF S30G
B6: Fab VH1-46_IGHD6-6*01_IGHJ1*01 S102A/S103P/S104F/H111F (APFF) & L6_IGKJ1*01 S30R (Fab, V domains shown)
VH: B1 VH
VL: B1 VL with I28S, S30R
notes: Fab expressed in E. coli: VH joined to CH1 (Plasmid A, His6 and Flag tags), VL joined to kappa CL (Plasmid C); also called APFF S30R
B7: Fab VH1-46_IGHD6-6*01_IGHJ1*01 S102A/S103P/S104F/H111F (APFF) & L6_IGKJ1*01 S30A (Fab, V domains shown)
VH: B1 VH
VL: B1 VL with I28S, S30A
notes: Fab expressed in E. coli: VH joined to CH1 (Plasmid A, His6 and Flag tags), VL joined to kappa CL (Plasmid C); also called APFF S30A
B8: Fab VH1-46_IGHD6-6*01_IGHJ1*01 S102A/S103P/S104F/H111F (APFF) & L6_IGKJ1*01 S30Q (Fab, V domains shown)
VH: B1 VH
VL: B1 VL with I28S, S30Q
notes: Fab expressed in E. coli: VH joined to CH1 (Plasmid A, His6 and Flag tags), VL joined to kappa CL (Plasmid C); also called APFF S30Q
B9: Fab VH1-46_IGHD6-6*01_IGHJ1*01 S102A/S103P/S104F/H111F (APFF) & L6_IGKJ1*01 S30T (Fab, V domains shown)
VH: B1 VH
VL: B1 VL with I28S, S30T
notes: Fab expressed in E. coli: VH joined to CH1 (Plasmid A, His6 and Flag tags), VL joined to kappa CL (Plasmid C); also called APFF S30T
B10: Fab VH1-46_IGHD6-6*01_IGHJ1*01 S102A/S103P/S104F/H111F (APFF) & L6_IGKJ1*01 S30L (Fab, V domains shown)
VH: B1 VH
VL: B1 VL with I28S, S30L
notes: Fab expressed in E. coli: VH joined to CH1 (Plasmid A, His6 and Flag tags), VL joined to kappa CL (Plasmid C); also called APFF S30L
B11: Fab VH1-46_IGHD6-6*01_IGHJ1*01 S102A/S103P/S104F/H111F (APFF) & L6_IGKJ1*01 S30W (Fab, V domains shown)
VH: B1 VH
VL: B1 VL with I28S, S30W
notes: Fab expressed in E. coli: VH joined to CH1 (Plasmid A, His6 and Flag tags), VL joined to kappa CL (Plasmid C); also called APFF S30W
B12: Fab VH1-46_IGHD6-6*01_IGHJ1*01 S102A/S103P/S104F/H111F (APFF) & L6_IGKJ1*01 S30C (Fab, V domains shown)
VH: B1 VH
VL: B1 VL with I28S, S30C
notes: Fab expressed in E. coli: VH joined to CH1 (Plasmid A, His6 and Flag tags), VL joined to kappa CL (Plasmid C); also called APFF S30C
B13: Fab VH1-46_IGHD6-6*01_IGHJ1*01 S102A/S103P/S104F/H111F (APFF) & L6_IGKJ1*01 S28M (Fab, V domains shown)
VH: B1 VH
VL: B1 VL with I28M
notes: Fab expressed in E. coli: VH joined to CH1 (Plasmid A, His6 and Flag tags), VL joined to kappa CL (Plasmid C); also called APFF S28M
B14: Fab VH1-46_IGHD6-6*01_IGHJ1*01 S102A/S103P/S104F/H111F (APFF) & L6_IGKJ1*01 S28T (Fab, V domains shown)
VH: B1 VH
VL: B1 VL with I28T
notes: Fab expressed in E. coli: VH joined to CH1 (Plasmid A, His6 and Flag tags), VL joined to kappa CL (Plasmid C); also called APFF S28T
B15: Fab VH1-46_IGHD6-6*01_IGHJ1*01 S102A/S103P/S104F/H111F (APFF) & L6_IGKJ1*01 S28N (Fab, V domains shown)
VH: B1 VH
VL: B1 VL with I28N
notes: Fab expressed in E. coli: VH joined to CH1 (Plasmid A, His6 and Flag tags), VL joined to kappa CL (Plasmid C); also called APFF S28N
B16: Fab VH1-46_IGHD6-6*01_IGHJ1*01 S102A/S103P/S104F/H111F (APFF) & L6_IGKJ1*01 S28P (Fab, V domains shown)
VH: B1 VH
VL: B1 VL with I28P
notes: Fab expressed in E. coli: VH joined to CH1 (Plasmid A, His6 and Flag tags), VL joined to kappa CL (Plasmid C); also called APFF S28P
B17: Fab VH1-46_IGHD6-6*01_IGHJ1*01 S102A/S103P/S104F/H111F (APFF) & L6_IGKJ1*01 S30P (Fab, V domains shown)
VH: B1 VH
VL: B1 VL with I28S, S30P
notes: Fab expressed in E. coli: VH joined to CH1 (Plasmid A, His6 and Flag tags), VL joined to kappa CL (Plasmid C); also called APFF S30P
B18: Fab VH1-46_IGHD6-6*01_IGHJ1*01 S102A/S103P/S104F/H111F (APFF) & L6_IGKJ1*01 S30D (Fab, V domains shown)
VH: B1 VH
VL: B1 VL with I28S, S30D
notes: Fab expressed in E. coli: VH joined to CH1 (Plasmid A, His6 and Flag tags), VL joined to kappa CL (Plasmid C); also called APFF S30D
B19: Fab VH1-46_IGHD6-6*01_IGHJ1*01 S102A/S103P/S104F/H111F (APFF) & L6_IGKJ1*01 S28Q (Fab, V domains shown)
VH: B1 VH
VL: B1 VL with I28Q
notes: Fab expressed in E. coli: VH joined to CH1 (Plasmid A, His6 and Flag tags), VL joined to kappa CL (Plasmid C); also called APFF S28Q
B20: Fab VH5-51_IGHD5-18*01>3_IGHJ4*01 G100K/G104T G24T/S28R/G35V (H:KT TRV) & V3-4_IGLJ1*01 V91L/S96P S57D (Fab, V domains shown)
VH: EVQLVQSGAEVKKPGESLKISCKTSGYRFTSYWIVWVRQMPGKGLEWMGIIYPGDSDTRYSPSFQGQVTISADKSISTAYLQWSSLKASDTAMYYCARRKYSYTYDYFDYWGQGTLVTVSS
VL: QTVVTQEPSFSVSPGGTVTLTCGLSSGSVSTSYYPSWYQQTPGQAPRTLIYSTNTRDSGVPDRFSGSILGNKAALTITGAQADDESDYYCLLYMGPGISYVFGTGTKVTVL
notes: Fab made in E. coli: VH in plasmid A (CH1, His6 and Flag tags), VL in plasmid E (lambda CL); also called H:KT TRV & L:LP S57D
B21: Fab VH5-51_IGHD5-18*01>3_IGHJ4*01 G100K/G104T G24T/S28R/G35V (H:KT TRV) & V3-4_IGLJ1*01 V91L/S96P S57I (Fab, V domains shown)
VH: B20 VH
VL: B20 VL with D57I
notes: Fab made in E. coli: VH in plasmid A (CH1, His6 and Flag tags), VL in plasmid E (lambda CL); also called H:KT TRV & L:LP S57I
B22: Fab VH5-51_IGHD5-18*01>3_IGHJ4*01 G100K/G104T G24T/S28R/G35V (H:KT TRV) & V3-4_IGLJ1*01 V91L/S96P S57E (Fab, V domains shown)
VH: B20 VH
VL: B20 VL with D57E
notes: Fab made in E. coli: VH in plasmid A (CH1, His6 and Flag tags), VL in plasmid E (lambda CL); also called H:KT TRV & L:LP S57E
B23: Fab VH5-51_IGHD5-18*01>3_IGHJ4*01 G100K/G104T G24T/S28R/G35V (H:KT TRV) & V3-4_IGLJ1*01 V91L/S96P S57G (Fab, V domains shown)
VH: B20 VH
VL: B20 VL with D57G
notes: Fab made in E. coli: VH in plasmid A (CH1, His6 and Flag tags), VL in plasmid E (lambda CL); also called H:KT TRV & L:LP S57G
B24: Fab VH5-51_IGHD5-18*01>3_IGHJ4*01 G100K/G104T G24T/S28R/G35V (H:KT TRV) & V3-4_IGLJ1*01 V91L/S96P S57H (Fab, V domains shown)
VH: B20 VH
VL: B20 VL with D57H
notes: Fab made in E. coli: VH in plasmid A (CH1, His6 and Flag tags), VL in plasmid E (lambda CL); also called H:KT TRV & L:LP S57H
B25: Fab VH5-51_IGHD5-18*01>3_IGHJ4*01 G100K/G104T G24T/S28R/G35V (H:KT TRV) & V3-4_IGLJ1*01 V91L/S96P S57K (Fab, V domains shown)
VH: B20 VH
VL: B20 VL with D57K
notes: Fab made in E. coli: VH in plasmid A (CH1, His6 and Flag tags), VL in plasmid E (lambda CL); also called H:KT TRV & L:LP S57K
B26: Fab VH5-51_IGHD5-18*01>3_IGHJ4*01 G100K/G104T G24T/S28R/G35V (H:KT TRV) & V3-4_IGLJ1*01 V91L/S96P S57F (Fab, V domains shown)
VH: B20 VH
VL: B20 VL with D57F
notes: Fab made in E. coli: VH in plasmid A (CH1, His6 and Flag tags), VL in plasmid E (lambda CL); also called H:KT TRV & L:LP S57F
B27: Fab VH5-51_IGHD5-18*01>3_IGHJ4*01 G100K/G104T G24T/S28R/G35V (H:KT TRV) & V3-4_IGLJ1*01 V91L/S96P S57L (Fab, V domains shown)
VH: B20 VH
VL: B20 VL with D57L
notes: Fab made in E. coli: VH in plasmid A (CH1, His6 and Flag tags), VL in plasmid E (lambda CL); also called H:KT TRV & L:LP S57L

biological target: T1, Recombinant Human DLL4 (R&D Systems Cat#1506-D4/CF) (human, UniProt Q9NR61 27-524); test: ECL multispot (MSD) binding assay, DLL4 spotted on plate, purified Fab in solution; Fab concentration not given
T1 construct: Bought recombinant protein; also called delta-like protein 4; rHuman DLL4

| Binder | ECL signal |
| --- | --- |
| B1 | 106000 |
| B2 | 110000 |
| B3 | 72300 |
| B4 | 165000 |
| B5 | 180000 |
| B6 | 146000 |
| B7 | 184000 |
| B8 | 203000 |
| B9 | 122000 |
| B10 | 199000 |
| B11 | 191000 |
| B12 | 129000 |
| B13 | 108000 |
| B14 | 159000 |
| B15 | 204000 |
| B16 | 178000 |
| B17 | 1140 |
| B18 | 225000 |
| B19 | 133000 |

biological target: T1, Recombinant Human DLL4 (R&D Systems …); test: ECL multispot (MSD) binding assay, DLL4 signal over blank spot; Fab concentration not given

| Binder | Signal/Blank |
| --- | --- |
| B1 | 309 |
| B2 | 246 |
| B3 | 220 |
| B4 | 545 |
| B5 | 664 |
| B6 | 350 |
| B7 | 516 |
| B8 | 1020 |
| B9 | 300 |
| B10 | 524 |
| B11 | 660 |
| B12 | 141 |
| B13 | 336 |
| B14 | 522 |
| B15 | 778 |
| B16 | 454 |
| B17 | 4.4 |
| B18 | 568 |
| B19 | 378 |

biological target: T2, Recombinant Human DLL4 (delta-like protein 4) (human, UniProt Q9NR61 27-524); test: ELISA, DLL4 coated on plate, 100 nM Fab
T2 construct: Bought recombinant human DLL4 (R&D Systems Cat#1506-D4/CF) coated on the ELISA plate; also called rHuman DLL4; Delta-like ligand 4

| Binder | ELISA Signal-blank (100 nM Fab) |
| --- | --- |
| B20 | 0.17 |
| B21 | 0.24 |
| B22 | 0.2 |
| B23 | 0.23 |
| B24 | 0.21 |
| B25 | 0.17 |
| B26 | 0.1 |
| B27 | 0.3 |
